Data taken from PMC2100151, “Structural and Functional Characterization of the Human Protein Kinase ASK1” (Structure(London, England:1993), 2007).

B1: Human ASK1 catalytic (kinase) domain, homogeneously triphosphorylated (domain or fragment)
chain: not shown
modifications: phosphothreonine at 813, 838 and 842 (autophosphorylation sites identified by mass spectrometry)
notes: Apoptosis signal-regulating kinase 1 (ASK1, MAP3K5), human, residues 659-951, gi|5174547; the same recombinant construct as m1, autophosphorylated; also called Tri-phosphorylated ASK1; triphosphorylated ASK1; source: recombinant protein treated with ATP/Mg2+ (autophosphorylated)
B2: Human ASK1 catalytic (kinase) domain, residues 659-951, phosphatase-treated (domain or fragment)
chain: not shown
modifications: mixture of un- and monophosphorylated protein; Thr838 partially phosphorylated in the crystal
notes: Apoptosis signal-regulating kinase 1 (ASK1, MAP3K5), human, residues 659-951 of the 1,374-residue protein, gi|5174547; Crystallised with 1 mM staurosporine; also called MAP3K5; ASK1 kinase domain; not shown: His6, N-terminal, cleaved

Key:
[1] = biological target: the molecule itself; experiment: AUC; sedimentation velocity; 13 μM protein in 10 mM HEPES pH 7.4, 120 mM NaCl, 0.25% glycerol, 4°C, 40,000 rpm; c(s) and c(M) distributions (SEDFIT)
[2] = biological target: the molecule itself; experiment: AUC; sedimentation equilibrium; protein at 6.5, 11.9 and 25.2 μM, 10,000 and 15,000 rpm; global fit to a self-association model; dimer to monomers

| Protein | stoichiometry N [1] | Kd [2] [nM] |
| --- | --- | --- |
| B1 | 2 | – |
| B2 | 2 | 220 ± 200 |
